Test results reported in patent US20050277581A1.
“And” between values parts separate entries of the source, which are not always exact repeats. Identical values can stand only once.

What was measured:
[1] = biological target: N,N′-diacetyl-Lys-D-Ala-D-Ala (Sigma D-9904, fw 372.4); assay: ITC, preliminary experiments, no serum proteins
[2] = biological target: N,N′-diacetyl-Lys-D-Ala-D-Ala (Sigma D-9904, fw 372.4); assay: ITC, 25 C, 430 µM HSA present
[3] = biological target: human albumin (HSA; Sigma A-3782; mw 69,366) (human) (UniProt P02768); assay: calculated from ITC Ka, dalbavancin 1-500 µM
human serum proteins = assay: cell-based or functional assay
mouse serum proteins = assay: cell-based or functional assay
[4] = biological target: N,N′-diacetyl-Lys-D-Ala-D-Ala (Sigma D-9904, fw 372.4); assay: ITC, 37 C, 482 µM HSA present
[5] = biological target: N,N′-diacetyl-Lys-D-Ala-D-Ala (Sigma D-9904, fw 372.4); assay: ITC, 25 C, 288 µM HSA present
[6] = biological target: N,N′-diacetyl-Lys-D-Ala-D-Ala (Sigma D-9904, fw 372.4); assay: ITC, 25 C, non-competitive binding model (KL)
[7] = biological target: N,N′-diacetyl-Lys-D-Ala-D-Ala (Sigma D-9904, fw 372.4); assay: ITC, 25 C, 601 µM HSA present
bovine albumin (bovine) = bovine albumin (bovine) (UniProt P02769); assay: ITC, protein injected into dalbavancin
rat albumin (rat) = rat albumin (rat) (UniProt P02770); assay: ITC, protein injected into dalbavancin
dog albumin (dog) = dog albumin (dog) (UniProt P49822); assay: ITC, protein injected into dalbavancin
[8] = biological target: human α-glycoprotein (human) (UniProt P02763); assay: ITC, protein injected into dalbavancin
[9] = biological target: N,N′-diacetyl-Lys-D-Ala-D-Ala (Sigma D-9904, fw 372.4); assay: ITC, 37 C, no HSA
[10] = biological target: N,N′-diacetyl-Lys-D-Ala-D-Ala (Sigma D-9904, fw 372.4); assay: ITC, 25 C, 104 µM HSA present
[11] = biological target: N,N′-diacetyl-Lys-D-Ala-D-Ala (Sigma D-9904, fw 372.4); assay: ITC, 10 C, no HSA
[12] = biological target: N,N′-diacetyl-Lys-D-Ala-D-Ala (Sigma D-9904, fw 372.4); assay: ITC, 25 C, no HSA
[13] = biological target: N,N′-diacetyl-Lys-D-Ala-D-Ala (Sigma D-9904, fw 372.4); assay: ITC, 25 C, 513 µM HSA present

bovine albumin (bovine), sequence (P02769 25-607 limits assumed): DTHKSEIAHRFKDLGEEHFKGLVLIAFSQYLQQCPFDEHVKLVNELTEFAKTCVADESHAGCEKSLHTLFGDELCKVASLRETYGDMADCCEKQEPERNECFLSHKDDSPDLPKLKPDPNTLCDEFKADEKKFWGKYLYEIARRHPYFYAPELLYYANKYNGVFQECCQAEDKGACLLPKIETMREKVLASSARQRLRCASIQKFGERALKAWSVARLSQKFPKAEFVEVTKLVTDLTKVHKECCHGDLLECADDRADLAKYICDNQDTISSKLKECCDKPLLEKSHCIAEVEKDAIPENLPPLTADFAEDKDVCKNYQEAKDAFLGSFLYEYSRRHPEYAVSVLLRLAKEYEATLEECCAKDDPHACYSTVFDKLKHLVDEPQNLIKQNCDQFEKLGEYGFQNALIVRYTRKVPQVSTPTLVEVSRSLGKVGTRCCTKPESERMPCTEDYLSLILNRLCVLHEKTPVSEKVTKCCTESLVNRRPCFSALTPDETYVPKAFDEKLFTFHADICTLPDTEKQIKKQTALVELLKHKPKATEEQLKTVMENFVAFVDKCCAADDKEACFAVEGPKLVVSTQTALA
dog albumin (dog), sequence (P49822 25-608 limits assumed): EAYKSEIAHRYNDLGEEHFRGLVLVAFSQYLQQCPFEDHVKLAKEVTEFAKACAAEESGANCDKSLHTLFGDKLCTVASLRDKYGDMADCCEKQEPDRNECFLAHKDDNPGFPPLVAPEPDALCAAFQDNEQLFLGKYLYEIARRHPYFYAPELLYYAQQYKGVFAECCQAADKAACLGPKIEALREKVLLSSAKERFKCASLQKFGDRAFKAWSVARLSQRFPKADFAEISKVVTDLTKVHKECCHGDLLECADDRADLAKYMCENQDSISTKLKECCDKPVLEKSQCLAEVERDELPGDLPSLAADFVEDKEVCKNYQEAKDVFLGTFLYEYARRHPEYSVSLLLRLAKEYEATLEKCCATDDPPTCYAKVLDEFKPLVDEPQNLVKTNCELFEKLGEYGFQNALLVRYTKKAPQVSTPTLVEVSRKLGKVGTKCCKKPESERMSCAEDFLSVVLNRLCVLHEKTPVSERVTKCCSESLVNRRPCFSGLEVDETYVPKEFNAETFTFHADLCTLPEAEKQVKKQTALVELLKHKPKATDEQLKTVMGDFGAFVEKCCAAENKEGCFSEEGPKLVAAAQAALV
rat albumin (rat), sequence (P02770 25-608 limits assumed): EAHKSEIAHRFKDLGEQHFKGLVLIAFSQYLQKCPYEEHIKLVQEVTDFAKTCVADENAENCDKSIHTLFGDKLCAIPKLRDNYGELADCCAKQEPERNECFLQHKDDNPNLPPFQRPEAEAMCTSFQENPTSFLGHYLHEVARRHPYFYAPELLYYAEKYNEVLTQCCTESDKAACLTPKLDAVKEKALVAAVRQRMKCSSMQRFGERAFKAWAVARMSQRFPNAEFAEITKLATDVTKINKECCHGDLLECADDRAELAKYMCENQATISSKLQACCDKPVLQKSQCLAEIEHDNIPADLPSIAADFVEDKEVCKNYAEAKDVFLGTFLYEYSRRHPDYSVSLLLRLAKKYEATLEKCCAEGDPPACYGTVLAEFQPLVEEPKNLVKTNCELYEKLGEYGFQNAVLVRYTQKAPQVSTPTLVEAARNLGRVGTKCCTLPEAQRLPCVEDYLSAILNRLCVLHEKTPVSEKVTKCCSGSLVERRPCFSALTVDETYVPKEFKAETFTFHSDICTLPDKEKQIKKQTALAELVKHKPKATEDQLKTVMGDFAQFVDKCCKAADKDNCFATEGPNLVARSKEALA
human α-glycoprotein (human), sequence (P02763 19-201): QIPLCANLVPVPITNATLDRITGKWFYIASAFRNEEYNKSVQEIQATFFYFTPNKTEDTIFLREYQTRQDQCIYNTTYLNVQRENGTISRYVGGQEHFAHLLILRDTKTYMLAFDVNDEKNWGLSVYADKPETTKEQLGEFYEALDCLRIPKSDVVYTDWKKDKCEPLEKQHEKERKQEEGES

Substance	Kd [1] [µM]	N [2]	percent bound [3] [%]	degree of binding in human serum estimated from MIC difference (human serum proteins) [%]	degree of protein binding estimated from MIC difference (mouse serum proteins) [%]	N [4]	N [5]	Kd [6] [µM]	N [7]	N (moles of protein per dalbavancin) (bovine albumin (bovine))	N (moles of protein per dalbavancin) (rat albumin (rat))	N (moles of protein per dalbavancin) (dog albumin (dog))	N (moles of protein per dalbavancin) [8]	N [9]	N [10]	N [11]	N [12]	N [13]
Dalbavancin (peptide)	10	1.24	> 98	96	99.6	0.179	0.9	3	0.86	< 1	< 1	< 1	< 1	0.82	1.38	–	–	–
Vancomycin hydrochloride (Sigma V-2002, fw 1485.7) (peptide)	–	–	–	–	–	–	–	–	–	–	–	–	–	–	–	1.1	0.91 and 0.97	1.05
